Results from article PMC4609183 (The EMBO Journal, 2015).

B1: R0RBR parkin (residues 141–465, lacking Ubl domain and linker) (domain or fragment, human, UniProt O60260 141-465, looked up)
chain: SIYNSFYVYCKGPCQRVQPGKLRVQCSTCRQATLTLTQGPSCWDDVLIPNRMSGECQSPHCPGTSAEFFFKCGAHPTSDKETSVALHLIATNSRNITCITCTDVRSPVLVFQCNSRHVICLDCFHLYCVTRLNDRQFVHDPQLGYSLPCVAGCPNSLIKELHHFRILGEEQYNRYQQYGAEECVLQMGGVLCPRPGCGAGLLPEPDQRKVTCEGGNGLGCGFAFCRECKEAYHEGECSAVFEASGTTTQAYRVDERAAEQARWEAASKETIKKTTKPCPRCHVPVEKNGGCMHMKCPQPQCRLEWCWNCGCEWNRVCMGDHWFDV

How the values were obtained:
Experiment in all cases: ITC; 50 μM R0RBR, full-length parkin or phosphoparkin titrated with Ub, Ubl or their variants; 25°C; 50 mM HEPES, 50 mM NaCl, 250 μM TCEP pH 7.5 or 50 mM HEPES, 150 mM NaCl, 0.5 mM TCEP pH 8.0; single-site model
Conditions in all cases: both partners purified
[1] = target: B1
ubiquitin = ubiquitin (UniProt P0CG47 1-76)
phosphoubiquitin = phosphoubiquitin (UniProt P0CG47 1-76, phosphoserine at 65)

Row | Binder | Kd [1] | dH [1] | stoichiometry N [1] | Kd (ubiquitin) | Kd (phosphoubiquitin)
1 | parkin Ubl domain (domain or fragment, human, UniProt O60260 1-76, looked up) MIVFVRFNSSHGFPVEVDSDTSIFQLKEVVAKRQGVPADQLRVIFAGKELRNDWTVQNCDLDQQSIVHIVQRPWRK | 3.8 ± 1.3 µM | -44 ± 3 kJ/mol | 0.98 | – | –
2 | B1 | – | – | – | 67 ± 1 µM | 0.016 ± 0.002 µM
